The target in this test is T1, SNRNP200 helicase region (SNRNP200^HR) (human, UniProt O75643 395-2129).
T1 construct: human SNRNP200 helicase region, residues 395-2129
Briefly: SEC; competitive binding: 5 μM pre-formed SNRNP200^HR-FBP21^200–376 or SNRNP200^HR-C9ORF78 complex incubated with 5 μM GST-TSSC4 in 50 μl, 10 min on ice, then analytical SEC as in a1. The conditions noted are these: both partners purified. (In general: SEC sorts molecules by how far they enter the pores of the column.)

T1 sequence (O75643 395-2129): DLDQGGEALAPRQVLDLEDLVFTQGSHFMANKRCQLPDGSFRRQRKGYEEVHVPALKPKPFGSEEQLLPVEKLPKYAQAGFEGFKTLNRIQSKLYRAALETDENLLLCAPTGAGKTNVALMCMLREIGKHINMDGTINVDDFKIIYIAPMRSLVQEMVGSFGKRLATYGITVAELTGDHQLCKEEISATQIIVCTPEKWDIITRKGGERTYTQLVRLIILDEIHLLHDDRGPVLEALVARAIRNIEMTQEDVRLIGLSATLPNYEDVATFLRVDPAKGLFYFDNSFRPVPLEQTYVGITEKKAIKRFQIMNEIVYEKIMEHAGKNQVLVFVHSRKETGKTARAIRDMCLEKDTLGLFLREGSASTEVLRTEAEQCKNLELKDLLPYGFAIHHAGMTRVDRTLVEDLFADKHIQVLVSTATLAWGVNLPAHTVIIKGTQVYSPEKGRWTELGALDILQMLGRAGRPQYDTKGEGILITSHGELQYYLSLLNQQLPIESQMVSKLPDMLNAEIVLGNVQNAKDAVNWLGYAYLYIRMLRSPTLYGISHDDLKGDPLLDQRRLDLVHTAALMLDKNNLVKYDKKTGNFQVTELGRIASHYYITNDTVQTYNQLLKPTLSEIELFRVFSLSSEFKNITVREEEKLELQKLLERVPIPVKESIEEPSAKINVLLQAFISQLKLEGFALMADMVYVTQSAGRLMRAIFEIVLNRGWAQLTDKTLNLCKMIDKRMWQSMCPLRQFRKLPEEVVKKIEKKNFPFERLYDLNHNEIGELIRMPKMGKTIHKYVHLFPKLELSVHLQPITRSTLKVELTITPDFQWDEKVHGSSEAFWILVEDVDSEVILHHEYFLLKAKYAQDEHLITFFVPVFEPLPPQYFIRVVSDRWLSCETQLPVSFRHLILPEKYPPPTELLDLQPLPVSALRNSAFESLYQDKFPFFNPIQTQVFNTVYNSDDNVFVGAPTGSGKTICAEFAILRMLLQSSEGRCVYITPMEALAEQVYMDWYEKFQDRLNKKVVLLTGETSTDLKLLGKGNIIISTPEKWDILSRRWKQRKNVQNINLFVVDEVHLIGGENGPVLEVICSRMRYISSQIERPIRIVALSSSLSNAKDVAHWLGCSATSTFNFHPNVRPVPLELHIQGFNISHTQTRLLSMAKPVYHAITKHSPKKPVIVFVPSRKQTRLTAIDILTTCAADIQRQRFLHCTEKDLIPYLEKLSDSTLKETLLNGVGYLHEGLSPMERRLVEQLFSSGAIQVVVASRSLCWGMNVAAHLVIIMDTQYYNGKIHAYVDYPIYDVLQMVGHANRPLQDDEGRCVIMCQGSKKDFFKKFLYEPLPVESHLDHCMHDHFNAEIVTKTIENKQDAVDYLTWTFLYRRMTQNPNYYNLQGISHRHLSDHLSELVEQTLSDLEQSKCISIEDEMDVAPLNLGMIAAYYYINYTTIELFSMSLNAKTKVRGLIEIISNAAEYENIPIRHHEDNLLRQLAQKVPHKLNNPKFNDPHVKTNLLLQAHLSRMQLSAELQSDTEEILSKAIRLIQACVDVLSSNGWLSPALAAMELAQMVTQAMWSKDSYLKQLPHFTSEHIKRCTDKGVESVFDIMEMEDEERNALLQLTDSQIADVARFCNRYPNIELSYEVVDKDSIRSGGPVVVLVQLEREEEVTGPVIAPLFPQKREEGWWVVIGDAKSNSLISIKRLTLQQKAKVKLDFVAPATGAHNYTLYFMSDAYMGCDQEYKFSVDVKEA

B1: C-terminal fragment of FBP21 (FBP21^200–376) (domain or fragment, human, UniProt O75554 200-376, looked up)
chain: HTSDLPSSKVNENSLGTLDESKSSDSHSDSDGEQEAEEGGVSTETEKPKIKFKEKNKNSDGGSDPETQKEKSIQKQNSLGSNEEKSKTLKKSNPYGEWQEIKQEVESHEEVDLELPSTENEYVSTSEADGGGEPKVVFKEKTVTSLGVMADGVAPVFKKRRTENGKSRNLRQRGDDQ
Take B1: the binding result is “binds”.

Source of the values: paper PMC8934646, “The intrinsically disordered TSSC4 protein acts as a helicase inhibitor, placeholder and multi-interaction coordinator during snRNP assembly and recycling” (Nucleic Acids Research, 2022).
